The results in this text go back to the supplement of paper PMC9170038.

The series concerns MS2 coat protein. The experiment in a line: apparent KD of MS2 coat protein; designed switch direction (-1 OFF switch, 1 ON switch): 1; higher = weaker reporter binding. The gist of the method: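 Designed RNA switches with common flanks were transcribed on Illumina chips by stalled E. coli RNA polymerase and titrated with SNAP-549-labelled MS2 coat protein, from 0.7 or 1.5 nM doubling to 3 µM, in Tris-HCl pH 7.5 buffer with KCl, MgCl2, BSA, DTT, tRNA and Tween-20. Steps lasted 0.8–1.5 h (lowest) to 10–20 min (highest). Titrations ran without input, with 200 uM small-molecule ligand, or with an oligonucleotide input. Normalised cluster fluorescence was curve-fitted, and apparent KD is the per-design median over clusters.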

Setting [1] is: Eterna round: R95, input ligand: microRNA oligo, concentration not stated.
[2] abbreviates: input ligand: microRNA oligo, concentration not stated.
Setting [3] is: Eterna round: R95, input ligand: FMN 200 uM.
The mark [4] stands for this setting: Eterna round: R95, input ligand: none.

For the sequence “CGGCGCUGUCGAGAGGAUAUGCGGUGAUGGACAUGAGGAUCACCCAUGUUAGCGAUAGCAUCACGGUAGAAGGCUCCACAGCCGU [Soteed Omei mod 13] (puzzle: Same State 2)”, under setting [1], the “apparent KD of MS2 coat protein” value was determined as 0.023 µM.

On to “CGGCUCCGUGGAGGAUAUGGGCCUGCCCGGGAUACCGGGCCUAACACAUGAGGAUCACCCAUGUCCCAGAAGGCCGCUGGAGCC [Cebeladi] (Eterna round: R96, puzzle: Same State NG 2)”, for which the “apparent KD of MS2 coat protein” value runs as follows: (input ligand: FMN 200 uM) 0.0127 µM; under setting [2], 0.0262 µM; (input ligand: none) 0.0523 µM.

Consider “CGUAGGUAGCUGGAGGAUAUCCGAGUGGUAACAUGAGGAUCACCCAUGUGAUGUGAGGAACAUGAGGAGAAGGCUAGCUGCCUGC [JL-ss2-3.12 JL mod] (puzzle: Same State 2)”, for which the “apparent KD of MS2 coat protein” value under setting [3] is 0.0231 µM, the “apparent KD of MS2 coat protein” value under setting [1] came to 0.0375 µM and the “apparent KD of MS2 coat protein” value under setting [4] came to 0.0382 µM.

Regarding “CGUAGGUGGCUGGAGGAUAUUCGAGUGGUAACAUGAGGAUCACCCAUGUGUCGCGCGGUACAUGAGGAGAAGGCUGGCGGCCUGC (puzzle: Same State 2)”, the “apparent KD of MS2 coat protein” value by setting is: under setting [3], 0.0197 µM; under setting [1], 0.0694 µM; under setting [4], 0.178 µM.

With “CGUCGUUUGAUAGGAUAUCGCUUUACAUGAGGAUCACCCAUGUUUCCCACGCUGGUUUUUCUUUCCGAGAAGGAUUCUGAUGUU [salish99_SSNG02_r04_029] (Eterna round: R96, puzzle: Same State NG 2)”, the “apparent KD of MS2 coat protein” value is 0.0446 µM (input ligand: FMN 200 uM), 0.0314 µM under setting [2] and 0.0406 µM (input ligand: none).

In the case of “CGUCGUUUGAUAGGAUAUCGCUUUACAUGAGGAUCACCCGGGUUUACCACGCUGGUUUUUCUUUCCGAGAAGGAUUCUGAUGUU [salish99_SSNG02_r04_028] (Eterna round: R96, puzzle: Same State NG 2)”, the “apparent KD of MS2 coat protein” value worked out at 0.117 µM (input ligand: FMN 200 uM), 0.0207 µM under setting [2] and 0.029 µM (input ligand: none).

Take “CGUUCUUACUCGGUACGGUGAGUAGAGGAACAUGAGGAUCACCCAUGUAUGAGCUUUUUGCUCGUGAUUAACAGUAG [JR_SHM208a_Sub014] (puzzle: Sensor for hsa-mir-208a)”: the “apparent KD of MS2 coat protein” value turned out to be 0.058 µM under setting [3], 0.0633 µM under setting [1] and 0.105 µM under setting [4].

With “CUAACAACAAGUUGCAGUGUUCGUCUUUAACAUGAGGAUCACCCAUGUAAUAGCCCGGUAGAAGCGCUCGGGCCACC [Anaesrain] (puzzle: Sensor for hsa-mir-208a)”, the “apparent KD of MS2 coat protein” value reads like this: under setting [3], 0.0328 µM; under setting [1], 0.0381 µM; under setting [4], 0.0363 µM.

Consider “CUACGCGCCGCAGGAUAUGCCGACCCGUGUUGAGCAGAAGGGCGCAACAUGAGGAUCACCCAUGUUGAAAGAGCGCAAAAUUAA [Zaesre] (Eterna round: R96, puzzle: Same State NG 1)”, for which the “apparent KD of MS2 coat protein” value was 0.0111 µM (input ligand: FMN 200 uM), 0.0125 µM under setting [2] and 0.016 µM (input ligand: none).

Take “CUCAAACAUGAGGAUCACCCAUGUGUUGUCAUGGGAGGAUAUCUAAGUUCGUUGUAUUCGGGAGAAGGCCUAUGUC [× ×•×ª×• ×ž×“×™× ×” × ×—×ª-10] (puzzle: Same State 1)”: the “apparent KD of MS2 coat protein” value under setting [1] stood at 0.199 µM.

With “CUCAACAACACAGGAUAUCCAGGGAAAAGAACUGGAGAAGGGUGACCAACAUGAGGAUCACCCAUGUGAUAGCUAGGCUGUCUG [Lararariso] (Eterna round: R96, puzzle: Same State NG 1)”, the “apparent KD of MS2 coat protein” value is, setting by setting: (input ligand: FMN 200 uM) 0.024 µM; under setting [2], 0.191 µM; (input ligand: none) 1.3 µM.

Take “CUCAACAACACAGGAUAUCCAGGUAAAAGACCUGGAGAAGGGUGACCAACAUGAGGAUCACCCAUGUGACAGCCAGGCUGUCUG [Isbitiqu] (Eterna round: R96, puzzle: Same State NG 1)”: the “apparent KD of MS2 coat protein” value worked out at 0.0878 µM (input ligand: FMN 200 uM), 0.00441 µM under setting [2] and 0.371 µM (input ligand: none).

Take “CUGAAAUGUCAAGGAUAUCACGUCGAUUAGACGUGAGAAGGUGAUCUGCACAUGAGGAUCACCCAUGUGUUACAUGGAAAUCAG [Brourd's SSNG1/1-A2 mod 14] (Eterna round: R96, puzzle: Same State NG 1)”: the “apparent KD of MS2 coat protein” value by setting is: (input ligand: FMN 200 uM) 0.312 µM; under setting [2], 0.581 µM; (input ligand: none) 0.964 µM.

Consider “CUGAGCAAUCGAGGAUAUCACGUCGAUUAGACGUGAGAAGGCGAUCAUAACAUGAGGAUCACCCAUGUAUUACAUGAAGCUCAG [SSNG1/4-A2] (Eterna round: R96, puzzle: Same State NG 1)”, for which the “apparent KD of MS2 coat protein” value is 0.0153 µM (input ligand: FMN 200 uM), 0.0129 µM under setting [2] and 0.0203 µM (input ligand: none).

For “CUGAGCGAUCAAGGAUAUCACGUCGUUUAGACGUGAGAAGGUGAUCCAUACAUGAGGAUCACCCAUGUAUAACAUGAAGCUCAG [SSNG1/8-A3] (Eterna round: R96, puzzle: Same State NG 1)”, the “apparent KD of MS2 coat protein” value is, setting by setting: (input ligand: FMN 200 uM) 0.646 µM; under setting [2], 0.057 µM; (input ligand: none) 1.54 µM.

As for “CUUGAUACACAUGAGGAUCACCCAUGUAUCAAGCUUUUUGCUCGUGUUAUUAUUUCCUUUAUUAGGAAUAUUAGGAA [rhiju-sequester-tail] (puzzle: Sensor for hsa-mir-208a version 2)”, the “apparent KD of MS2 coat protein” value was found to be 0.0249 µM under setting [3], 0.0144 µM under setting [1] and 0.0237 µM under setting [4].

In the case of “CUUUUUAAUGCAGGAUAUGAUCAACAUGAGGAUCACCCAUGUGGUGUUGUGAGUAAGGAGAGUGAUCAGAAGGGCAUCUUCUCA [SS-NG2-LRO05] (Eterna round: R96, puzzle: Same State NG 2)”, the “apparent KD of MS2 coat protein” value is, setting by setting: (input ligand: FMN 200 uM) 0.301 µM; under setting [2], 0.133 µM; (input ligand: none) 0.169 µM.

On to “CUUUUUCACUAUACAUGAGGAUCACCCAUGUUAUCAUCAUGAGAGGAUAUCGUAAUAGGAUUUUUCGAGAAGGCUCUAAAGUAU [JR_SSNG3_Sub079] (Eterna round: R96, puzzle: Same State NG 3)”, for which the “apparent KD of MS2 coat protein” value by setting is: (input ligand: FMN 200 uM) 0.0263 µM; under setting [2], 0.043 µM; (input ligand: none) 0.045 µM.

On to “GAAACAUGACGAGGAUAUGGAACAUGAGGAUCACCCAUGUAUGUUCCAUAACGCGAAUGACGAAUCCAGAAGGCGUCGUGAAAG [Mat - Same State NG 2 - JL mod - D28] (Eterna round: R96, puzzle: Same State NG 2)”, for which the “apparent KD of MS2 coat protein” value (input ligand: FMN 200 uM) stood at 0.0336 µM, the “apparent KD of MS2 coat protein” value under setting [2] turned out to be 0.177 µM and the “apparent KD of MS2 coat protein” value (input ligand: none) worked out at 0.233 µM.

Consider “GAAACAUGACGAGGAUAUGGUACAUGAGGAUCACCCAUGUAUGUACCACGACGCGUACGUCGAAUCCAGAAGGCGUCGUGAAAG [Mat - Same State NG 2 - JL mod - D20] (Eterna round: R96, puzzle: Same State NG 2)”, for which the “apparent KD of MS2 coat protein” value amounted to 0.0278 µM (input ligand: FMN 200 uM), 0.0511 µM under setting [2] and 0.0864 µM (input ligand: none).

With “GAAAGGCCUACAGGAUAUACCACAGUCUUGUCGGUAGAAGGGUGGGACAUGAGGAUCACCCAUGUACACUCCCAGAUGGGAGUG [Ergeesis] (Eterna round: R96, puzzle: Same State NG 1)”, the “apparent KD of MS2 coat protein” value by setting is: (input ligand: FMN 200 uM) 0.767 µM; under setting [2], 0.135 µM; (input ligand: none) 0.476 µM.

“GAAUAGUUGAGAGGAUAUGGAUUAUUGUAGGAUCCAGAAGGUUUUAACAUGAGGAUCACCCAUGUAGGACUAUAUAUGUGAAUA [Parity 97 - Jieux - Same State NG 1] (Eterna round: R96, puzzle: Same State NG 1)”: the “apparent KD of MS2 coat protein” value was found to be 0.0131 µM (input ligand: FMN 200 uM), 0.0117 µM under setting [2] and 0.0195 µM (input ligand: none).

With “GACAAUCUAUCUGAGGAUAUCAUGAAGAAAACAUGAGGAUCACCCAUGUGCAGGAUAACUGCAAAUGAGAAGGCAGAUAGAUUGG [Mat - Same State 2 - Mod - D3] (puzzle: Same State 2)”, the “apparent KD of MS2 coat protein” value turned out to be 0.0109 µM under setting [3], 0.0168 µM under setting [1] and 0.02 µM under setting [4].

With “GACCAACAUGAGGAUCACCCAUGUUUCUGAGGCACAGGAUAUCGACAGGCAAGACACCUGCGAGAAGGGUGACCUC [Same State 1 - Mod of Vinnie Diatater v.3] (puzzle: Same State 1)”, the “apparent KD of MS2 coat protein” value reads like this: under setting [3], 0.0492 µM; under setting [1], 0.0388 µM; under setting [4], 0.0302 µM.

Consider “GAGAAGAGGGACAAGGAUAUGUCAGGAGAGACAUGAGGAUCACCCAUGUAGAGGUUGGAGGAGAGACAGAAGGUGUCGAGAGCGA [JR_SS2_Sub014] (puzzle: Same State 2)”, for which the “apparent KD of MS2 coat protein” value under setting [3] came to 0.123 µM, the “apparent KD of MS2 coat protein” value under setting [1] was determined as 0.143 µM and the “apparent KD of MS2 coat protein” value under setting [4] was 0.361 µM.

For the sequence “GAGAGAGGAAGCGAGGAUAUCGUGUUAGGUACAUGAGGAUCACCCAUGUUGUAGGUAGAGGUAGGCGAGAAGGCGCAGGAGAGGU [JR_SS2_Sub095] (puzzle: Same State 2)”, the “apparent KD of MS2 coat protein” value was 0.0267 µM under setting [3], 0.0264 µM under setting [1] and 0.0322 µM under setting [4].

Turning to “GAGAGAGGGUGAGGAUAUUCAGUAAUAAUGAUAGAAGAAGGCACAGACAUGAGGAUCACCCAUGUGGGAAUAAUCCAGAGAGAG [Parity 3 - Jieux - Same State NG 1] (Eterna round: R96, puzzle: Same State NG 1)”, under setting [2], the “apparent KD of MS2 coat protein” value is 0.158 µM.

With “GAGAGAGGGUGAGGAUAUUUAGUGAUAAUGAUGGGAGAAGGCACAGACAUGAGGAUCACCCAUGUGGGAAUAAUCCAGAGAGAG [Parity 10 - Jieux - Same State NG 1] (Eterna round: R96, puzzle: Same State NG 1)”, the “apparent KD of MS2 coat protein” value runs as follows: (input ligand: FMN 200 uM) 0.145 µM; under setting [2], 0.0927 µM; (input ligand: none) 0.232 µM.
